Data on 1 substance can be found in publication PMC2156126.

Bounds are passed on as bounds.

For this assay, the target named is GST-VCA (GST fusion of human N-WASP residues 392-505) on glutathione Sepharose (human) (UniProt O00401). As to the kind of experiment: pull-down.
Sequence of GST-VCA (GST fusion of human N-WASP residues 392-505) on glutathione Sepharose (human) (O00401 392-505): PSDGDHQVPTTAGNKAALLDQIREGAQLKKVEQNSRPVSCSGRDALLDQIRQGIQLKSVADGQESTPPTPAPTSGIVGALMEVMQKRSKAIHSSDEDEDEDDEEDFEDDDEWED

The substance “Arp2/3 complex endogenous in human platelet extracts (from UniProt P61158;P61160;O15145)” came in with a percent depleted from the extract by the beads above 80%.
